According to patent publication US20200407442A1 (WUXI BIOLOGICS IRELAND, published 2020):

Legend:
Experiment in all cases: FACS, 1 ug/mL antibody, transfected 293F cells
[1] = target: T1, full-length mouse LAG-3 on cells (mouse, UniProt Q61790 24-521)
T1 construct: also called mPro1.FL; murine LAG-3
T1 sequence: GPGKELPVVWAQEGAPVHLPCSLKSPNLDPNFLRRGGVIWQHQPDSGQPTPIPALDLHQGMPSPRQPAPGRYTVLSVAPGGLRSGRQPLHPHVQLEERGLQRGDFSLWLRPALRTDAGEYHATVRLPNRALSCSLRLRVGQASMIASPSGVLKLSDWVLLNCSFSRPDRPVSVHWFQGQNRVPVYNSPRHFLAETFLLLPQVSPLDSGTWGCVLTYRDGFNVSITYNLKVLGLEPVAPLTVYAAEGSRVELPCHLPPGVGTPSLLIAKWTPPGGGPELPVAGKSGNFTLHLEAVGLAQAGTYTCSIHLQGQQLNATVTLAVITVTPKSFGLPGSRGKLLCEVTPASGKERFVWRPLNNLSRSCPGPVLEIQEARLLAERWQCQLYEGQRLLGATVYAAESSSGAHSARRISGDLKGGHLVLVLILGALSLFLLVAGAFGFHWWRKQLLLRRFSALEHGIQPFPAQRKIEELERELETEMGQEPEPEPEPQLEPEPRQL

[2] = target: T2, Variant 1: xPro1.FL-x1 (human; mouse)
T2 construct: Chimeric full-length LAG-3 on transfected 293F cells
T2 chain: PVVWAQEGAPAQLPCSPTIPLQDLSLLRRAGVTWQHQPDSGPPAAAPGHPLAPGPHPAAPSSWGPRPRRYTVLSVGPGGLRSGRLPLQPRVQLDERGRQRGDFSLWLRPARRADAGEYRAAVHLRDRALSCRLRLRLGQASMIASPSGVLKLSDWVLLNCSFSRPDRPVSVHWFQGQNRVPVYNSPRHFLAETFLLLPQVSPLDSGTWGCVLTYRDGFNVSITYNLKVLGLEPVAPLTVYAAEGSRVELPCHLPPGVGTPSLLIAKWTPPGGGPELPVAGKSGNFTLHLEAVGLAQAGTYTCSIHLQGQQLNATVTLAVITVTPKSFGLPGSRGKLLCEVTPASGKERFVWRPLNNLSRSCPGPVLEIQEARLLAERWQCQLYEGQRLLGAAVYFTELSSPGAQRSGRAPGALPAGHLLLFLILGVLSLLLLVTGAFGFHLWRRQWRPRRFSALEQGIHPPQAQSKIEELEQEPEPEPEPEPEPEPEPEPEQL

[3] = target: T3, Variant 4: xPro1.FL-x4 (human; mouse)
T3 construct: Chimeric full-length LAG-3 on transfected 293F cells
T3 chain: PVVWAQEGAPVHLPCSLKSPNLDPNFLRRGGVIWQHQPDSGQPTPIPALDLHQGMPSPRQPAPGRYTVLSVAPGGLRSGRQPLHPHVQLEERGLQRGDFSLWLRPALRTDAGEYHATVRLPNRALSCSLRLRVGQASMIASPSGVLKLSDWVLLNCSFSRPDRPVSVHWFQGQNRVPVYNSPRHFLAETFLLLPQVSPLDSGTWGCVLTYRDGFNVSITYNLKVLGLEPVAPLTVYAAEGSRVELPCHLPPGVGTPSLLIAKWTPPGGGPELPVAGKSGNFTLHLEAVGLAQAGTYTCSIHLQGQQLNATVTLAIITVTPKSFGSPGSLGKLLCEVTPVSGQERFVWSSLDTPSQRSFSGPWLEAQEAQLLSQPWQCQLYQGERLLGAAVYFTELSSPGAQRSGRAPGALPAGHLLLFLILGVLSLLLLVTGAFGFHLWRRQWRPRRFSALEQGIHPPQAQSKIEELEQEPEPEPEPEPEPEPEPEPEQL

[4] = target: T4, Variant 8: xPro1.FL-x8 (human; mouse)
T4 construct: Chimeric full-length LAG-3 on transfected 293F cells
T4 chain: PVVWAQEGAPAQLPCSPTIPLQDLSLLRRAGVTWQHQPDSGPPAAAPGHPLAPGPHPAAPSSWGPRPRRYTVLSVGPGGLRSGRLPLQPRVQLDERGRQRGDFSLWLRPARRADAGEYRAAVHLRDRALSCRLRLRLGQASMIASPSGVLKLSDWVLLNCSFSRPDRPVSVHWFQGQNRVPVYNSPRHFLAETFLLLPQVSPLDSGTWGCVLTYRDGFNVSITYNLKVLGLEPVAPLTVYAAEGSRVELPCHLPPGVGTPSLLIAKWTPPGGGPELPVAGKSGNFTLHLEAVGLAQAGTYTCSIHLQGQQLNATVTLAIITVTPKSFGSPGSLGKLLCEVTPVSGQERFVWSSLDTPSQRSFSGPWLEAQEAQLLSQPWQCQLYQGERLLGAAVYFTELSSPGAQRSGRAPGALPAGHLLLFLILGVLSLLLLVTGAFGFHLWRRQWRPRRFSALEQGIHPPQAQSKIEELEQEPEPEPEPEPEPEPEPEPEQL

MFI [1]: 43.9
PE+ % [1]: 1.1%
MFI [2]: 8580
PE+ % [2]: 97%
MFI [3]: 41
PE+ % [3]: 1.42%
MFI [4]: 7430
PE+ % [4]: 97.6%
B1: 1.53.3-uAb-IgG4k (antibody, V domains shown)
VH: QVQLQQWGAGLLKPSETLSLTCGVYGGSFSGYYWSWIRQPPGMGLEWIGEINHRGNTNYNPSLKSRVTISEDTSKNQFSLRLSSVTAADTAVYFCTRGEDYSDYDYYGDFWGQGTLVTVSS
VL: EIVLTQSPATLSLSQGERATLSCRASQSISSYLAWYQQKPGQAPRLLIYAASNRATGIPARFSGSGSGTDFTLTISSLEPEDFAIYYCQQRSNWPLTFGGGTKVEIK
notes: Fully human antibody from OMT rats; IgG4 kappa by its name
